Measured values taken from paper PMC7494861, “Characterization of the nucleotide-binding domain NsrF from the BceAB-type ABC-transporter NsrFP from the human pathogen Streptococcus agalactiae” (Scientific Reports, 2020).

Key:
Test in all cases: purified protein
Assay type in all cases: biochemical, Streptococcus agalactiae
Settings in all cases: 100 mM HEPES pH 7, 10 mM Mg2+, 0 mM NaCl, 30 °C, cooperative
[1] = test system: Nc1nc2c(ncn2[C@@H]2O[C@H](COP(=O)(O)OP(=O)(O)OP(=O)(O)O)[C@@H](O)[C@H]2O)c(=O)[nH]1
From the text: (§1) malachite green phosphate release, Hill fit on SaNsrF (SaNsrFWT)

[2] = test system: Nc1ccn([C@@H]2O[C@H](COP(=O)(O)OP(=O)(O)OP(=O)(O)O)[C@@H](O)[C@H]2O)c(=O)n1
From the text: as §1

[3] = test system: O=c1ccn([C@@H]2O[C@H](COP(=O)(O)OP(=O)(O)OP(=O)(O)O)[C@@H](O)[C@H]2O)c(=O)[nH]1
From the text: as §1

Substance “SaNsrF (SaNsrFWT) (Streptococcus agalactiae 2603V/R)” has a K0.5 [1] of 0.69 ± 0.07 mM, a Vmax [1] of 221.6 ± 11.1 nmol/min/mg and a K0.5 [2] of 1.23 ± 0.20 mM. The Vmax [2] was 339.0 ± 30.4 nmol/min/mg, the K0.5 [3] was 0.90 ± 0.13 mM and the Vmax [3] was 314.8 ± 23.4 nmol/min/mg.
